The target in the assay is T1, GST-RING1B (mouse, UniProt Q9CQJ4 1-336).
T1 construct: RING1B (Ring1b), the coding region amplified from mouse cDNA, in pGEX-4T; also called pGEX-4T-mRing1b; source: E. coli BL21 (DE3), purified (glutathione agarose); not shown: GST, N-terminal, kept
T1 sequence (looked up): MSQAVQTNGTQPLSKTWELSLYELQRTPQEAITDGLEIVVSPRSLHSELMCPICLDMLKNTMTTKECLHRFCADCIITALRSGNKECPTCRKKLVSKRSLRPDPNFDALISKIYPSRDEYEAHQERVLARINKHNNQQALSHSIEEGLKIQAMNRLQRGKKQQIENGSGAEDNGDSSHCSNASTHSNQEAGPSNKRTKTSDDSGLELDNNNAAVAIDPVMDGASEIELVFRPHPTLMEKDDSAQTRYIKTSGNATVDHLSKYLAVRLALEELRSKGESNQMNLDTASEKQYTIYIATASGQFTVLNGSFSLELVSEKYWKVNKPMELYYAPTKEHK
The experiment in a line: pull-down; same mixture as a3: purified His-mYAF2-mCherry (0, 100, 300 ng) with 300 ng purified GST-RING1B in the presence of mESC extract, PBS, 4 °C; read out as loss of RYBP from GST-RING1B. Conditions: both partners purified.

From publication PMC10630410, “Functional dissection of PRC1 subunits RYBP and YAF2 during neural differentiation of embryonic stem cells” (Nature Communications, 2023) come the findings set out here.

B1: His-mYAF2-mCherry (natural protein, mouse, UniProt Q99LW6 1-179, looked up)
chain: MGDKKSPTRPKRQPKPASDEGYWDCSVCTFRNSAEAFKCMMCDVRKGTSTRKPRPVSQLVAQQVTQQFVPPTQSKKEKKDRVEKDKSEKEAASKKNCHKKTRPRLKNVDRSSAQHLEVTVGDLTVIITDFKEKAKSAPASSAAGDQHSQGSCSSDSTERGVSRSSSPRGEASSLNGESH
notes: YAF2 (Yaf2), the coding region amplified from mouse cDNA, in pET-28a; also called His-YAF2; pET-28a-mYaf2-mCherry; source: E. coli BL21 (DE3), purified (Ni-NTA); not shown: His6, N-terminal, kept
As to B1, the binding result is “binds”.
